From patent US7608265B2, “Treatment for bacterial infections” (priority 2004, dated 2009) come the findings set out here.

The subject of experiment [1] is Vancomycin resistant Enterococcus faecium. Description: Combination drug MIC (checkerboard), Enterococcus faecium. The format is cell-based.
Experiment [2] concerns Clostridium difficile NCR 1104. Description: microbe, parasite or virus in culture. The format is cell-based.
For experiment [3], the system named is C. difficile NCTC 11204. Description: Combination drug MIC (checkerboard), C. difficile NCTC 11204, RCM. The format is cell-based, Clostridium difficile.
Experiment [4] concerns C. difficile 14000287. Description: Combination drug MIC (checkerboard), C. difficile 14000287, Brucella broth. In kind it is cell-based, Clostridium difficile.
The test system of experiment [5] is C. difficile acetyl-CoA acetyl transferase (thiolase). Description: Immunoblot of H1L1 against cloned acetyl-CoA acetyl transferase. The conditions noted are these: H1L1 at 1:10 (approximately 400 μg/ml), purified His-tag thiolase, band just under 50 kD marker. In kind it is binding, Clostridium difficile. The protocol:
Cloned and purified acetyl-CoA acetyl transferase was mixed 1:1 with loading buffer and DTT and put on heating block at 90° C. for 5 minutes. 5-15 μl was separated for 35 minutes on a 10% BisTris gel (Invitrogen) using NuPAGE-MES SDS running buffer (Invitrogen).
The proteins were transblotted onto Invitrolon PVDF membrane (Invitrogen Ltd, Carlsbad, Calif., USA) and blocked in 5% skimmed milk in 0.1% Tween20 in 10 mM PBS for 1 hour. The membrane was incubated with H1L1 at 1:10 (concentration approximately 400 μg/ml) in 0.1% Tween20 in 10 mM PBS for 1 hour. Washed three times for 5 minutes with 0.1% Tween20 in 10 mM PBS and then incubated for one hour with S-protein HRP conjugate (Novagen) at 1:1000.

The subject of experiment [6] is Clostridium difficile. Description: Growth of Clostridium difficile in the presence of SCFA and H1L1 (OD600). The format is cell-based. The conditions noted are these: for Mean Optical Density at 24 Hours: OD600. The protocol:
The three SCFAs used were acetate, propionate and butyrate.
Each was prepared to a concentration of 1 M as follows: • Sodium acetate FW 82.03-82.03 g in 1 litre dH2O • Sodium butyrate FW 110.09-110.09 g in 1 litre dH2O • Sodium propionate FW 96.06-96.06 g in 1 litre dH2O
The three solutions were combined in a ratio of 70:20:10 respectively. Therefore, in the final solution the concentrations were sodium acetate 0.7 M, sodium butyrate 0.2 M and sodium propionate 0.1 M. The final concentration of total SCFA was 1 M.
From this stock solution concentrations of 5, 10, 20, 30, 40 and 50 mM total SCFA were prepared using reinforced clostridial medium (RCM, DIFCO).
Reinforced clostridial medium (RCM) was prepared according to the manufacturers instructions: 38 g in 1 litre dH2O
Cultures were only removed from anaerobic conditions immediately prior to use.
An overnight suspension of C. difficile was made by inoculation 10 ml of RCM medium with colonies from a 48 hour old Columbia Blood Agar plate of the organism. The suspension was incubated for 24 hours at 37° C. under anaerobic conditions.
In a flat-bottomed 96 well microtitre plate control solutions (200 μl) were placed in the wells as outlined below in Table 4. Each control used 3 wells.
In a flat-bottomed 96 well microtitre plate (rows labelled A-H, columns labelled 1-12) test solutions (100 μl) were placed in the wells as detailed below. The two test solutions, SCFA plus H1L1, give a combined volume of 200 μl. Each test used 2 wells. […] Wells in columns 1 and 2 contained 16 μg/ml H1L1; in columns 3 and 4, 8 μg/ml H1L1; in columns 5 and 6, 4 μg/ml H1L1; in columns 7 and 8, 2 μg/ml H1L1; in columns 9 and 10, 1 μg/ml H1L1; in columns 11 and 12, 0.5 μg/ml H1L1. Row G was empty. 200 μl RCM was placed into all the wells in row H as a growth control for the plate.
The overnight suspension, culture at late log phase, was used to inoculate the microtitre plates. 20 μl (approx 10% inoculum) was added to all the wells, except for the media/negative control on the control plate.
Plates were incubated at 37° C. under anaerobic conditions for 24 hours.
Optical density readings (OD600 nm) were made at time points zero and 24 hours. Average OD600 nm readings were determined.

Setting [7] is: gentamicin + H1L1 combination, Brucella broth.
[8] abbreviates: 8 μg/ml of H1L1 and SCFA from 10-50 mM.

Converted amounts (≈) assume the structure as drawn. Like-named read-outs stand apart in the source and are kept apart here.

Sequence of C. difficile acetyl-CoA acetyl transferase (thiolase) (as listed by the source): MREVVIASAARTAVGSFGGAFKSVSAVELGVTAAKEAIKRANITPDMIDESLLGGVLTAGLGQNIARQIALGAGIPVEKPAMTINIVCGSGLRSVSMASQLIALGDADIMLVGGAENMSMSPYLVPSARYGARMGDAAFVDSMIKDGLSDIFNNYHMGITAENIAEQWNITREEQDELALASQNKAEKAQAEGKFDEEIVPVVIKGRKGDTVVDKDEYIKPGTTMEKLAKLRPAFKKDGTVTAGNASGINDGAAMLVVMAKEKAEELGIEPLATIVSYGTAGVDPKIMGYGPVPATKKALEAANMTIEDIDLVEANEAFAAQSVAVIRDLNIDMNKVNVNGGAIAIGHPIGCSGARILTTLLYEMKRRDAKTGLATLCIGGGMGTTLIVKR

In the case of `CN[C@H](CC(C)C)C(=O)N[C@H]1C(=O)N[C@@H](CC(N)=O)C(=O)N[C@H]2C(=O)N[C@H]3C(=O)N[C@H](C(=O)N[C@H](C(=O)O)c4cc(O)cc(O)c4-c4cc3ccc4O)[C@H](O)c3ccc(c(Cl)c3)Oc3cc2cc(c3O[C@@H]2O[C@H](CO)[C@@H](O)[C@H](O)[C@H]2O[C@H]2C[C@](C)(N)[C@H](O)[C@H](C)O2)Oc2ccc(cc2Cl)[C@H]1O` [Vancomycin, vancomycin], in experiment [1], the FICI turned out to be 0.37, the “MIC (μg/ml) of each agent Combination” value was found to be 16 µg/mL and the Outcome entry is listed as “Synergy”. For the same molecule, the MIC in experiment [1] (Enterococcus faecium, 24 h, read-out: MIC (μg/ml) of each agent Alone) is 128 µg/mL. In experiment [2], the FICI was determined as 0.125, the “MIC (μg/ml) of each agent Combination” value worked out at 0.125 µg/mL and the Outcome entry is “Synergy”. The MIC in experiment [2] (Clostridioides difficile, NCR1104, 48 h, read-out: MIC (μg/ml) of each agent Alone) amounted to 1 µg/mL (≈ 0.69 µM).

On to gentamicin [reference compound], for which the “MIC (μg/ml) of each agent Alone” value in experiment [3] worked out at 16 µg/mL. Also, in experiment [3] (gentamicin + H1L1 combination), the “FIC (μg/ml)” value turned out to be 0.25, the FICI came out at 0.375, the “MIC (μg/ml) of each agent Combination” value was determined as 4 µg/mL and the Outcome result is “Synergy”. In experiment [4] (Brucella broth), the “MIC (μg/ml) of each agent Alone” value is 8 µg/mL. Besides, in experiment [4] (setting [7]), the “FIC (μg/ml)” value was 0.25, the FICI amounted to 0.266, the “MIC (μg/ml) of each agent Combination” value was found to be 2 µg/mL and the Outcome result is listed as “Synergy”.

B1: H1L1: synthetic antibody S Tag-CDH1-Linker-CDL1-His Tag, SEQ ID NO: 41, from dominant VH and VL of C. difficile patients; binds acetyl-CoA acetyltransferase (protein)
chain: EVQLVESGPGLVKPSETLSLTCTVSGGSVSSGSYSWSWIRQRPGQGLEWIGFIYYTGYTSYKSSLKSRVSLSVDTSNDQFSLSLSSVTAADTAVYYCAREIRAPDHHDFSGYLGRWGQGTLVTVSSGGSGGGGSGGGGSASKSSELTQDPAVSVALGQTVRITCQGDSLRSYYASWYQQKPGQAPVLVIYGKNNRPSGIPDRFSGSSSGNTASLTITGAQAEDEADYYCNSRDSTGNQLFGGGTKVTVLG
modifications: synthetic H1L1 antibody
As for B1, the “MIC (μg/ml) of each agent Alone” value was 512 µg/mL in experiment [3]; 512 µg/mL in experiment [1] (agent alone, 24 h); 512 µg/mL in experiment [4] (Brucella broth). The “FIC (μg/ml)” value in experiment [3] (gentamicin + H1L1 combination) was found to be 0.125; in experiment [1] (vancomycin + H1L1 combination), 0.25; in experiment [2] it was 0.0004; in experiment [4] (setting [7]), 0.0156. In addition, the “MIC (μg/ml) of each agent Combination” value was determined as 64 µg/mL in experiment [3] (gentamicin + H1L1 combination), 128 µg/mL in experiment [1] (vancomycin + H1L1 combination), 0.25 µg/mL in experiment [2] and 8 µg/mL in experiment [4] (setting [7]). In addition, the Outcome result in experiment [3] (gentamicin + H1L1 combination) is “synergy (synergy was defined by a value of <=0.5)”; in experiment [1] (vancomycin + H1L1 combination), “synergy (synergy was defined by a value of <=0.5)”; in experiment [2] it was “synergy (key: synergy was defined by a value of <=0.5; indifference was defined by a value of >0.5 to <4; antagonism was defined by a value of >=4.0)”; in experiment [4] (setting [7]) it was “synergy (synergy was defined by a value of <=0.5)”. Further, the “Immunoblot response to the thiolase band” value in experiment [5] is “strong response”. For the same molecule, the “Outcome of combination” value in experiment [4] (H1L1 and vancomycin versus C. difficile 14000287) is given as “synergy (synergy was defined by a value of <=0.5)”. Also, the “Interaction of H1L1 and SCFA” value is “Synergy” in experiment [6] (setting [8]); “Indifference” in experiment [6] (1, 2 and 4 μg/ml of H1L1 and 5 mM of SCFA (data not shown)). The “optical density at 24 hours” value in experiment [6] (setting [8]) was 0.296-0.330. For the same molecule, the “Effect on growth” value is reported as “inhibition” in experiment [6] (16 μg/ml of H1L1 alone); “No effect” in experiment [6] (0.5, 1, 2, 4 and 8 μg/ml of H1L1 alone). Moreover, the “Mean Optical Density at 24 Hours” value in experiment [6] (H1L1 0.5 μg/ml alone) is 0.450; in experiment [6] (H1L1 1 μg/ml alone), 0.440; in experiment [6] (H1L1 2 μg/ml alone), 0.440; in experiment [6] (H1L1 4 μg/ml alone), 0.440; in experiment [6] (H1L1 8 μg/ml + SCFA 10 mM) it was 0.310; in experiment [6] (H1L1 8 μg/ml + SCFA 20 mM), 0.296. Also, the “Mean Optical Density at 24 Hours” value in experiment [6] (H1L1 8 μg/ml + SCFA 30 mM) turned out to be 0.305; in experiment [6] (H1L1 8 μg/ml + SCFA 40 mM), 0.310; in experiment [6] (H1L1 8 μg/ml + SCFA 50 mM), 0.330; in experiment [6] (H1L1 8 μg/ml alone), 0.420; in experiment [6] (H1L1 16 μg/ml + SCFA 10 mM), 0.308; in experiment [6] (H1L1 16 μg/ml + SCFA 20 mM), 0.228. For the same molecule, the “Mean Optical Density at 24 Hours” value in experiment [6] (H1L1 16 μg/ml + SCFA 30 mM) came to 0.308; in experiment [6] (H1L1 16 μg/ml + SCFA 40 mM) it was 0.303; in experiment [6] (H1L1 16 μg/ml + SCFA 50 mM), 0.281; in experiment [6] (H1L1 16 μg/ml alone), 0.334.
